Drawing on PMC2966067, this text covers percent reduction of binding against wild type (densitometry) and percent of wild-type binding (densitometry) for 2 substances.

The test has as its target GST-Pin1 (UniProt Q13526). Put plainly: pull-down.

For FLAG-MEF2C S98/110A (natural protein), the percent reduction of binding against wild type (densitometry) worked out at 70%.

“FLAG-MEF2C S98A/S110A/S240A/S388A (natural protein)” came in with a percent of wild-type binding (densitometry) of 10%.
